Test results published in the supplement of paper PMC12042874.
± gives the uncertainty stated by the source.

assay: amyloid nucleation score (Sup35N fusion, yeast selection) (log enrichment); library NNK3; higher = more nucleation; inactive = no reads after selection
How it was run: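 Sup35N fusions to peptides of 20 random codons were expressed in psi-negative yeast, induced 24 hours with 100 μM copper sulfate, and grown 7 days at 30°C on medium lacking adenine and uracil. Input and output plasmid inserts were sequenced by Illumina. The nucleation score is the DiMSum log enrichment of output over input reads, centred on the mode score of non-aggregating sequences. Sequences with under 100 input reads were excluded.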

Row | Substance | amyloid nucleation score
1 | KGPRSGLVYGSSDHVFLA | inactive
2 | WLFLVN | inactive
3 | RIDIGY | 0.612 ± 0.17
4 | SRRDYRLGSTVKLVVLGKSF | inactive
5 | NSPTYYPHSFLMTYKALSFT | inactive
6 | GSMMSCWRLAESWVVSKPPG | inactive
7 | VSIIVRYQL | 1.93 ± 0.096
8 | SMAMFIFMITLVCYFKDSPW | inactive
9 | CFQQVHN | inactive
10 | NISWVAFMIVLHLDRLNMF | inactive
11 | ESNDIIINV | inactive
12 | QHYDDSNRFYNK | inactive
13 | GLTWFKSIKVYVECLFRLSN | inactive
14 | WYRYFGCEDP | inactive
15 | GWHNGDKSYIFVYIRFGPMG | 0.955 ± 0.16
16 | CCIMQPCSVVVYQWSQNRSR | 3.14 ± 0.053
17 | ANSTNKQC | inactive
18 | SIRISLEISGYSELSITFSC | inactive
19 | LWLIPC | inactive
20 | LHGNLRNLI | inactive
21 | IQYLLLLSTTARFLWKCFSL | 0.37 ± 0.28
22 | RLNWASVRRFTLIGRSVRRS | inactive
23 | LVDAVHLCSNVNYTFCTNAG | 1.3 ± 0.074

Row | Substance | amyloid nucleation score
24 | FNIEASYAPVRCCCKPLLAR | inactive
25 | GISFSFRFLNENFHCVFRRA | inactive
26 | EDKGYWNLQAIEIVIQYGGR | 0.225 ± 0.43
27 | SVVMVRSVYIERSVEPPAPG | -0.607 ± 1.4
28 | DMQHPFDFKRQ | inactive
29 | AYYKCWNNATDLVTNVPPIH | inactive
30 | SSWPTTGRWE | inactive
31 | GVPLQWSSHAWGFFCWKTPW | inactive
32 | RIVGEYSLKGCEVNVSWVKS | inactive
33 | NSASSFCPRRLCYGRRQEDL | inactive
34 | THSPKISRFLDNSRMRQFFT | inactive
35 | PRMRFILGFVIIEKENDRVK | -0.431 ± 0.62
36 | PFPFSNLLERV | 0.364 ± 0.34
37 | FQNPFTPFGLVVRYVPWLCW | inactive
38 | NLHNVMRKFTQGFSGHKTKL | inactive
39 | MVKLCALSCSIALDPIQTFK | 0.426 ± 0.19
40 | YNKGRNY | inactive
41 | YFVALVS | inactive
42 | VGAKRFPYVYWAYGSYVFAD | inactive
43 | RMYLAHFCVIN | 2.9 ± 0.062
44 | FWKLNFITIMCG | -0.34 ± 1
45 | NRSLEVNELI | -0.412 ± 0.68
46 | LQHVIFSYLLVGASSFRFHP | inactive

Row | Substance | amyloid nucleation score
47 | ISMFCMIGFEVW | inactive
48 | FMAQPSLIGLFRSQS | inactive
49 | LLSPEEGGLKSECRRWSGAL | inactive
50 | KVCVLVDMHSGHTVHWGLMC | inactive
51 | FAYLVS | inactive
52 | VCHKCCDRIQSLVGVRGHQE | inactive
53 | VESRRRLRVEVGFSRVDT | 0.077 ± 0.79
54 | TRQNWENNFLLWYGEVMS | inactive
55 | NATIKIFTTIISDYQFGMR | 0.152 ± 0.3
56 | AVPNIL | inactive
57 | NLSVGRALTWHPSPWDQQIW | inactive
58 | IGLLYLHLPNIALINRSVVG | inactive
59 | GLLNRIIVLYTLLNSDIRES | inactive
60 | KPSFDPFKN | inactive
61 | WASDNVEGDWWYWW | 0.017 ± 0.57
62 | VLYVTKGVIFRCGCYNVGED | 1.7 ± 0.11
63 | LDEIWIKDFSMSSHVAGRHS | inactive
64 | TYSGRSKSILTGSID | inactive
65 | GTFNIDVEVMVYRAGLFKHV | inactive
66 | VNEFNGDGGSQLRQKQNPLF | inactive
67 | SMNFVLLRGGRRMIQQDRVR | inactive
68 | DKVIHVAGFKVIDCHSSRIR | inactive
69 | ITICVSIF | 1.75 ± 0.072

Row | Substance | amyloid nucleation score
70 | YHCWSDLDKSLELLSQLMFR | inactive
71 | DIMLYSWITCIMSSAPPRDN | 1.74 ± 0.11
72 | SYRIIEWCSLGKDNLDIRTG | inactive
73 | RRSVAFLPYMSW | inactive
74 | GFLPA | inactive
75 | WPVNCMKGSSCNRELFNH | inactive
76 | GPTQIGNLMVTHKSQCSWFN | inactive
77 | EELLRGFGAVGSWLNLSLEV | inactive
78 | RPRALRQTLFDRYL | 0.872 ± 0.13
79 | KSHPINIRPFKYIPKMLASS | inactive
80 | TLWYSFQKSSSNLTRSLGLK | inactive
81 | YVNVSACNNGMLLGWQVG | inactive
82 | SLKFIELDMSIVVMSSDYFR | inactive
83 | SKRFSLGI | inactive
84 | DIELLGKARGYSLEQG | inactive
85 | DTGDCVPGVLSRYLMIWDG | inactive
86 | LPFNGTGTAWCSAGAQLFGR | 0.837 ± 0.15
87 | GKKNYLF | inactive
88 | YAMYSYFFIVAWFFNRS | 0.252 ± 0.39
89 | NLKLAWNRLSRMHWFLMNRS | inactive
90 | IAHPSHGS | 0.432 ± 0.22
91 | YRYVCWFTTILTYTNGRFSS | inactive
92 | STTLWAIALGLYNTVYSLAN | inactive

Row | Substance | amyloid nucleation score
93 | YAYMYNVCYGDCRCANGVWY | 2.71 ± 0.084
94 | VNYRN | inactive
95 | YSSKIFHRLTK | inactive
96 | MRFADFCRGYFRRGSYPLGF | inactive
97 | RGAVCVNFTSRWSWGIGEHH | 1.33 ± 0.11
98 | MLLSVRRGSLWESRPRTWLM | 0.535 ± 0.22
99 | SCLHHFMEDSEPMNMGRVVK | inactive
100 | SLCWSLNGFNLLISFDFRRN | 0.785 ± 0.14
101 | YNYGKGRWHALLDISKVEVK | inactive
102 | FMSYCMYSLEGNSWHCGP | 3.03 ± 0.061
103 | WSYNITK | inactive
104 | PEYCKAWLRWKPISVYTQVW | inactive
105 | LCTLYWNGARWSRCFATTFY | inactive
106 | ECGWNMFCDRAHMSLGFYSM | inactive
107 | NVVSWGHDLYGKKAPALWEV | inactive
108 | LSFYISPS | 0.748 ± 0.1
109 | HLGFVEYAAKYTMVVCGRAV | inactive
110 | VMLRTFSA | inactive
111 | SFKNNL | inactive
112 | LSCVRRSSLDSC | inactive
113 | TWISITWTWPWKKWVLNLRY | inactive
114 | LFWSWYGGWKLNWGI | 0.661 ± 0.14
115 | VSVCLVCAVIPRLLSMRCIV | inactive

Row | Substance | amyloid nucleation score
116 | VFRAGILESWHRWEGLGVVL | inactive
117 | CFAIWVCKSVR | inactive
118 | VIDVFSRDLSMLIFSFGHMK | 1.12 ± 0.089
119 | AEALCQFIYCFAASKLTGVC | inactive
120 | ASSLHDPMRYVQTFRISWCC | 1.34 ± 0.12
121 | RDLWNGFSLGA | inactive
122 | NLPHRLVTNRMCGAGGFGII | inactive
123 | YFKVFQVLNLNICYSYRMVN | inactive
124 | MSSACGWEEVIGCLEVMRIG | inactive
125 | LWSLHMESDWGVRIHSRSLI | inactive
126 | KPCVTFSHSAIRISVTWSTN | -0.079 ± 0.38
127 | FSRMPSIKCMNCMCKLFSRK | 1.06 ± 0.11
128 | TKEAY | inactive
129 | VVTSRCLRKKLFLDLSVCIT | inactive
130 | FYLALIYNICFADRKLVGVC | inactive
131 | NDNIDPTRVIQ | inactive
132 | HGVWRLSYVVVGCPLTEVSP | inactive
133 | SFFTYRPQMMRCLSAIYTRM | inactive
134 | SLNKWVGCRSRIRWDLGTQF | inactive
135 | TRYIIMCPILCRSEMVLPVR | inactive
136 | TYFMRPSNYHVLSLGAG | inactive
137 | HVIKNFSADISIDDFFYLGM | inactive
138 | DIFGKRRLCI | inactive

Row | Substance | amyloid nucleation score
139 | FLGLLLIYQPNSIE | inactive
140 | TLKRWLNLDRSSYIRESIKR | inactive
141 | YCLVV | inactive
142 | TKCNRALHMEVIIQATAVAR | inactive
143 | ISTKGITTRSLLDFKILCIT | inactive
144 | FFPMLIARMDALPRPVNLGY | inactive
145 | RICRYGAIDLMGVP | inactive
146 | IMYSYNGRLCGTIELSFPGL | 0.814 ± 0.26
147 | PDLITLIFGSHFGKCSFISY | inactive
148 | WYADICCCQIFRCWKLDRWS | inactive
149 | MVQRSMKARILFCKVNFLCA | 1.16 ± 0.15
150 | KRLIVVIFKQWPARGCTTHC | inactive
151 | RCGHFLYEFL | inactive
152 | WECRDETSCARVVFTGLFR | inactive
153 | GHNRYIDLSIEIRAL | -0.61 ± 1.1
154 | FIGSGSHEIGGHINGKALSS | 0.644 ± 0.19
155 | GKLTWIYIGIARPHEKMWLT | inactive
156 | ISLDLG | inactive
157 | EVLSNDGAGLFFHGKKCMYI | inactive
158 | YGSVFSMSMTHA | inactive
159 | IASSSWHVMIWYSPRSCVFS | inactive
160 | VKVES | -0.195 ± 1.1
